Columns and labels:
[1] = target: the molecule itself; test: crystal structure; CrGAPA with 1 mM NADP+ or NAD+, hanging drop at 293 K, 1.2-1.6 M (NH4)2SO4, 0.1 M Tris-HCl pH 7.5-8.5; dimer in the asymmetric unit, tetramer by a crystallographic 2-fold axis
[2] = target: the molecule itself; test: crystal structure; oxidized NADP+-CrGapA, hanging drop at 293 K, 1.2-1.6 M (NH4)2SO4, 0.1 M Bicine pH 9.5; dimer in the asymmetric unit, tetramer by a crystallographic 2-fold axis

B1: photosynthetic glyceraldehyde-3-phosphate dehydrogenase from Chlamydomonas reinhardtii (CrGAPA) (enzyme, UniProt P50362 35-374, looked up)
chain: EKKIRVAINGFGRIGRNFLRCWHGRQNTLLDVVAINDSGGVKQASHLLKYDSTLGTFAADVKIVDDSHISVDGKQIKIVSSRDPLQLPWKEMNIDLVIEGTGVFIDKVGAGKHIQAGASKVLITAPAKDKDIPTFVVGVNEGDYKHEYPIISNASCTTNCLAPFVKVLEQKFGIVKGTMTTTHSYTGDQRLLDASHRDLRRARAAALNIVPTTTGAAKAVSLVLPSLKGKLNGIALRVPTPTVSVVDLVVQVEKKTFAEEVNAAFREAANGPMKGVLHVEDAPLVSIDFKCTDQSTSIDASLTMVMGDDMVKVVAWYDNEWGYSQRVVDLAEVTAKKWVA
notes: Glyceraldehyde-3-phosphate dehydrogenase A, chloroplastic (GAPA), Chlamydomonas reinhardtii; mature protein; Homotetramer of A-type subunits; also called NADP-CrGAPA; NAD-CrGAPA
- stoichiometry N [1]: 4

B2: oxidized NADP+-CrGAPA (catalytic Cys149 oxidized to sulphinate/sulphonate) (enzyme, Chlamydomonas reinhardtii, UniProt P50362 35-374, looked up)
chain: EKKIRVAINGFGRIGRNFLRCWHGRQNTLLDVVAINDSGGVKQASHLLKYDSTLGTFAADVKIVDDSHISVDGKQIKIVSSRDPLQLPWKEMNIDLVIEGTGVFIDKVGAGKHIQAGASKVLITAPAKDKDIPTFVVGVNEGDYKHEYPIISNASCTTNCLAPFVKVLEQKFGIVKGTMTTTHSYTGDQRLLDASHRDLRRARAAALNIVPTTTGAAKAVSLVLPSLKGKLNGIALRVPTPTVSVVDLVVQVEKKTFAEEVNAAFREAANGPMKGVLHVEDAPLVSIDFKCTDQSTSIDASLTMVMGDDMVKVVAWYDNEWGYSQRVVDLAEVTAKKWVA
modifications: Cys149 oxidized to sulphinate/sulphonate (-SO2-/-SO3-)
notes: Glyceraldehyde-3-phosphate dehydrogenase A, chloroplastic (GAPA), Chlamydomonas reinhardtii; mature protein; Same construct as m1; Cys149 found oxidized in crystals grown in 0.1 M Bicine pH 9.5 with NADP+
- stoichiometry N [2]: 4

— PMC9287727, “Structural snapshots of nitrosoglutathione binding and reactivity underlying S-nitrosylation of photosynthetic GAPDH” (Redox Biology, 2022)
